This note sets out measurements from PMC4692385, “Identification of Thyroid Hormones and Functional Characterization of Thyroid Hormone Receptor in the Pacific Oyster Crassostrea gigas Provide Insight into Evolution of the Thyroid Hormone System”.

B1: DR1 (dsDNA)
DNA 1: CCGTAAGGTCACAGGTCACTCG
DNA 2: CGAGTGACCTGTGACCTTACGG
B2: CgDR5 (dsDNA)
DNA 1: GTCCGTGATCACGGGTAGGTCAAACTG
DNA 2: CAGTTTGACCTACCCGTGATCACGGAC
B3: DR4 (dsDNA)
DNA 1: CCGTAAGGTCACAGGAGGTCACTCG
DNA 2: CGAGTGACCTCCTGTGACCTTACGG
B4: DR2 (dsDNA)
DNA 1: CCGTAAGGTCACAAGGTCACTCG
DNA 2: CGAGTGACCTTGTGACCTTACGG
B5: DR3 (dsDNA)
DNA 1: CCGTAAGGTCACAGAGGTCACTCG
DNA 2: CGAGTGACCTCTGTGACCTTACGG
B6: DR0 (dsDNA)
DNA 1: CCGTAAGGTCAAGGTCACTCG
DNA 2: CGAGTGACCTTGACCTTACGG
B7: DR5 (dsDNA)
DNA 1: CCGTAAGGTCACCAGGAGGTCACTCG
DNA 2: CGAGTGACCTCCTGGTGACCTTACGG

One data set deals with rCgTR (Crassostrea gigas, UniProt A0A0F6V015 1-479). Description: EMSA; no ligand; LightShift Chemiluminescent EMSA kit (Pierce), manufacturer's instructions; buffer, salt, pH and temperature not stated; 100-fold cold probe competition; anti-His supershift. Particulars: protein: recombinant, tags: pET30a, label: biotin, blunt. (In general: A gel shift assay detects complexes by their altered migration in electrophoresis.)
rCgTR, sequence (A0A0F6V015 entry or part of it): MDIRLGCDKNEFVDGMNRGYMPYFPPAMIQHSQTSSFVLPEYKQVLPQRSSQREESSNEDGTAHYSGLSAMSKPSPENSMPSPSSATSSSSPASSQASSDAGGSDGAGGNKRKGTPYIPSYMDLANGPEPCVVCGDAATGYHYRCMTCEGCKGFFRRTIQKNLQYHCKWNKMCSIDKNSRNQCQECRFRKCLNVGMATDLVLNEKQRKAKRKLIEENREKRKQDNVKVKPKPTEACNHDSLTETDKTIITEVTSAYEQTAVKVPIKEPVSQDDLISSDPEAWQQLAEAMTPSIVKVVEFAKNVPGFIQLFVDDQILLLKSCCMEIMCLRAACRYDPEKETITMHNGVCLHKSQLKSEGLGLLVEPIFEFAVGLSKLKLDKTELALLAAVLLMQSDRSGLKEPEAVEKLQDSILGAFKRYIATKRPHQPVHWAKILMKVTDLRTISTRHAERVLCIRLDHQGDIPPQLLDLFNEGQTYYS
Take B1: the binding result is recorded as “binds”.

For B2, the binding result is recorded as “binds”.

Regarding B3, the binding result was “binds”.

With B4, the binding result is listed as “binds”.

Consider B5, for which the binding result is on record as “binds”.

For B6, the binding result is recorded as “binds”.

Regarding B7, the binding result is “binds”.

The target in another data set is rCgTR1-240 (Crassostrea gigas, UniProt A0A0F6V015 1-240). Briefly: EMSA; no ligand; homodimer and monomer bands; LightShift Chemiluminescent EMSA kit (Pierce), manufacturer's instructions; buffer, salt, pH and temperature not stated; 100-fold cold probe competition; anti-His supershift. Particulars: protein: recombinant, tags: pET30a, label: biotin, blunt.
rCgTR1-240, sequence (A0A0F6V015 entry or part of it): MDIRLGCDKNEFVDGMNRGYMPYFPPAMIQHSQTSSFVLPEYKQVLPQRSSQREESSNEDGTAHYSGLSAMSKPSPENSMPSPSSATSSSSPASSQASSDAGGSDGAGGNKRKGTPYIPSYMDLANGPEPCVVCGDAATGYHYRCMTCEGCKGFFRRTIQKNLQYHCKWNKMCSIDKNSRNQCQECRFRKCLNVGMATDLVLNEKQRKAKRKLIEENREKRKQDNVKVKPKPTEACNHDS
For B4, the binding result was “binds”.
